Laboratory results taken from patent US12269859B2, “Synthetic immune receptors and methods of use thereof” (Angeles Therapeutics, Inc., priority 2016, dated 2025).

Test system: target antigen-expressing cell line
Test: Jurkat NFAT-GFP assay, coculture with target cell lines expressing the respective target antigen (summary Table 10A)
Assay type: cell-based, human
Set-up: key: The signs +/−, +, 2+ etc. after the name of the cell lines indicate the relative degree of positivity on the Jurkat-NFAT-GFP assay as measured by the % GFP positive cells; +: relative degree of positivity on the Jurkat-NFAT-GFP assay as measured by the % GFP positive cells; 2+: relative degree of positivity on the Jurkat-NFAT-GFP assay as measured by the % GFP positive cells
In short: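 Positivity is scored when SIR-expressing reporter Jurkat cells show more GFP-positive cells than parental controls after coculture with the antigen-bearing line. Effector-to-target ratio is about 1:2, coculture lasts roughly 4–18 hours, and GFP is quantified by FACS.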

B1: 012517-N12 (protein)
chain: MALPVTALLLPLALLLHAARPLEGKPIPNPLLGLDSTGSGEDLKNVFPPEVAVFEPSKAEIAHTQKATLVCLATGFYPDHVELSWWVNGKEVHSGVCTDPQPLKEQPALNDSRYCLSSRLRVSATFWQNPRNHFRCQVQFYGLSENDEWTQDRAKPVTQIVSAEAWGRADCGITSASYHQGVLSATILYEILLGKATLYAVLVSALVLMAMVKRKDSRGRAKRSGSGATNFSLLKQAGDVEENPGPTSMALPVTALLLPLALLLHAARPDVVMTQSPLSLPVTPGEPASISCRSSQSLVHSNGNTYLHWYLQKPGQSPQLLIYKVSNRFSGVPDRFSGSGSGTDFTLKISRVEAEDVGVYFCSQSTHVPPFTFGGGTKVEIKGGGGSGGGGSGGGGSEVQLVESGGGLVQPGGSLRLSCAASGFTFSDYYMAWVRQAPGKGLEWVADINYDGGSTYYLDSLKSRFTISRDNAKNSLYLQMNSLRAEDTAVYYCARDRGYYFDYWGQGTLVTVSSTREQKLISEEDGSGIQNPDPAVYQLRDSKSSDKSVCLFTDFDSQTNVSQSKDSDVYITDKCVLDMRSMDFKSNSAVAWSNKSDFACANAFNNSIIPEDTFFPSSDVPCDVKLVEKSFETDTNLNFQNLSVIGFRILLLKVAGFNLLMTLRLWSSRAKRSGSGVKQTLNFDLLKLAGDVESNPGPSRGHMTEYKPTVRLATRDDVPRAVRTLAAAFADYPATRHTVDPDRHIERVTELQELFLTRVGLDIGKVWVADDGAAVAVWTTPESVEAGAVFAEIGPRMAELSGSRLAAQQQMEGLLAPHRPKEPAWFLATVGVSPDHQGKGLGSAVVLPGVEAAERAGVPAFLETSAPRNLPFYERLGFTVTADVEVPEGPRTWCMTRKPGA
Question: How did the “NFAT-GFP ASSAY Positive Cell lines” value (coculture with L363 cells) turn out when B1 was run?
Answer: +

Question: What about the “NFAT-GFP ASSAY Positive Cell lines” value (coculture with U266 cells) of the same molecule?
Answer: 2+

B2: 012517-A12 (protein)
chain: MALPVTALLLPLALLLHAARPLEGKPIPNPLLGLDSTGSGEDLKNVFPPEVAVFEPSKAEIAHTQKATLVCLATGFYPDHVELSWWVNGKEVHSGVCTDPQPLKEQPALNDSRYCLSSRLRVSATFWQNPRNHFRCQVQFYGLSENDEWTQDRAKPVTQIVSAEAWGRADCGITSASYHQGVLSATILYEILLGKATLYAVLVSALVLMAMVKRKDSRGRAKRSGSGATNFSLLKQAGDVEENPGPTSMALPVTALLLPLALLLHAARPDIQMTQSPSSLSASVGDRVTITCKASQDVSTAVAWYQQKPGKAPKLLIYSASYRYTGVPDRFTGSGSGTDFTLTISSLQPEDFATYYCQQHYSTPPYTFGGGTKVEIKRGGGGSGGGGSGGGGSQVQLVQSGAEVKKPGASVKVSCKASGYAFSSSWMNWVRQAPGQGLEWIGRIYPGDGDTKYNGKFKGKATLTADKSTSTAYMELSSLRSEDTAVYYCARSTMIATGAMDYWGQGTLVTVSSTREQKLISEEDGSGIQNPDPAVYQLRDSKSSDKSVCLFTDFDSQTNVSQSKDSDVYITDKCVLDMRSMDFKSNSAVAWSNKSDFACANAFNNSIIPEDTFFPSSDVPCDVKLVEKSFETDTNLNFQNLSVIGFRILLLKVAGFNLLMTLRLWSSRAKRSGSGVKQTLNFDLLKLAGDVESNPGPSRGHMTEYKPTVRLATRDDVPRAVRTLAAAFADYPATRHTVDPDRHIERVTELQELFLTRVGLDIGKVWVADDGAAVAVWTTPESVEAGAVFAEIGPRMAELSGSRLAAQQQMEGLLAPHRPKEPAWFLATVGVSPDHQGKGLGSAVVLPGVEAAERAGVPAFLETSAPRNLPFYERLGFTVTADVEVPEGPRTWCMTRKPGA
Question: For B2, which “NFAT-GFP ASSAY Positive Cell lines” value (coculture with L363 cells) is on record?
Answer: (+)

Question: What about the “NFAT-GFP ASSAY Positive Cell lines” value (coculture with U266 cells) of the same molecule?
Answer: U266 (+/−), L363

B3: 012517-B12 (protein)
chain: MALPVTALLLPLALLLHAARPLEGKPIPNPLLGLDSTGSGEDLKNVFPPEVAVFEPSKAEIAHTQKATLVCLATGFYPDHVELSWWVNGKEVHSGVCTDPQPLKEQPALNDSRYCLSSRLRVSATFWQNPRNHFRCQVQFYGLSENDEWTQDRAKPVTQIVSAEAWGRADCGITSASYHQGVLSATILYEILLGKATLYAVLVSALVLMAMVKRKDSRGRAKRSGSGATNFSLLKQAGDVEENPGPTSMALPVTALLLPLALLLHAARPDVVMTQTPLSLSVTPGQPASISCRSSQSLVHNNGNTYLHWYLQKPGQSPQLLIYKVSNRFSGVPDRFSGSGSGTDFTLKISRVEAEDVGVYFCSQSTHVPPYTFGGGTKVEIKGGGGSGGGGSGGGGSEVQLVESGGGLVQPGGSLRLSCAASGFTFSDYYMAWVRQAPGKGLEWVAEINYDGSSTYYVDSVKGRFTISRDNAKNSLYLQMNSLRAEDTAVYYCARDRGFYFDYWGQGTTVTVSSTREQKLISEEDGSGIQNPDPAVYQLRDSKSSDKSVCLFTDFDSQTNVSQSKDSDVYITDKCVLDMRSMDFKSNSAVAWSNKSDFACANAFNNSIIPEDTFFPSSDVPCDVKLVEKSFETDTNLNFQNLSVIGFRILLLKVAGFNLLMTLRLWSSRAKRSGSGVKQTLNFDLLKLAGDVESNPGPSRGHMTEYKPTVRLATRDDVPRAVRTLAAAFADYPATRHTVDPDRHIERVTELQELFLTRVGLDIGKVWVADDGAAVAVWTTPESVEAGAVFAEIGPRMAELSGSRLAAQQQMEGLLAPHRPKEPAWFLATVGVSPDHQGKGLGSAVVLPGVEAAERAGVPAFLETSAPRNLPFYERLGFTVTADVEVPEGPRTWCMTRKPGA
Question: Which “NFAT-GFP ASSAY Positive Cell lines” value (coculture with L363 cells) does the source give for B3 here?
Answer: +

Question: And the “NFAT-GFP ASSAY Positive Cell lines” value (coculture with U266 cells)?
Answer: 2+

B4: 110116-L01 (protein)
chain: MALPVTALLLPLALLLHAARPLEQKLISEEDLGSGDRPDPAVYQLRDSKSSDKSVCLFTDFDSQTNVSQSKDSDVYITDKCVLDMRSMDFKSNSAVAWSNKSDFACANAFNNSIIPEDTFFPSPESSCDVKLVEKSFETDTNLNFQNLSVIGFRILLLKVAGFNLLMTLRLWSSSSRAKRSGSGVKQTLNFDLLKLAGDVESNPGPTSMALPVTALLLPLALLLHAARPDIVMTQSQKSMSTSVGDRVSITCKASQDVITGVAWYQQKPGQSPKLLIYSASYRYTGVPDRFTGSGSGTDFTFTISNVQAEDLAVYYCQQHYSTPLTFGAGTKLELKGGGGSGGGGSGGGGSQVQLQQPGAELVRPGASVKLSCKASGYSFTTYWMNWVKQRPGQGLEWIGMIHPSDSETRLNQKFKDKATLTVDKSSSTAYMQLSSPTSEDSAVYYCARSTMIATRAMDYWGQGTSVTVSSTRGKPIPNPLLGLDSTGSGEDLKNVFPPEVAVFEPSEAEISHTQKATLVCLATGFYPDHVELSWWVNGKEVHSGVCTDPQPLKEQPALNDSRYCLSSRLRVSATFWQNPRNHFRCQVQFYGLSENDEWTQDRAKPVTQIVSAEAWGRADCGFTSESYQQGVLSATILYEILLGKATLYAVLVSALVLMAMVKRKDSRGRAKRSGSGATNFSLLKQAGDVEENPGPSRGHMTEYKPTVRLATRDDVPRAVRTLAAAFADYPATRHTVDPDRHIERVTELQELFLTRVGLDIGKVWVADDGAAVAVWTTPESVEAGAVFAEIGPRMAELSGSRLAAQQQMEGLLAPHRPKEPAWFLATVGVSPDHQGKGLGSAVVLPGVEAAERAGVPAFLETSAPRNLPFYERLGFTVTADVEVPEGPRTWCMTRKPGA
modifications: Synthetic Immune Receptor (SIR)
Question: B4 was tested. Which “NFAT-GFP ASSAY Positive Cell lines” value (coculture with L363 cells) did it give?
Answer: U266 (+), L363 (+)

Question: What about the “NFAT-GFP ASSAY Positive Cell lines” value (coculture with U266 cells) of the same molecule?
Answer: U266 (+), L363 (+)

B5: 012517-O12 (protein)
chain: MALPVTALLLPLALLLHAARPLEGKPIPNPLLGLDSTGSGEDLKNVFPPEVAVFEPSKAEIAHTQKATLVCLATGFYPDHVELSWWVNGKEVHSGVCTDPQPLKEQPALNDSRYCLSSRLRVSATFWQNPRNHFRCQVQFYGLSENDEWTQDRAKPVTQIVSAEAWGRADCGITSASYHQGVLSATILYEILLGKATLYAVLVSALVLMAMVKRKDSRGRAKRSGSGATNFSLLKQAGDVEENPGPTSMALPVTALLLPLALLLHAARPDIQMTQSSSYLSVSLGGRVTITCKASDHINNWLAWYQQKPGNAPRLLISGATSLETGVPSRFSGSGSGKDYTLSITSLQTEDVATYYCQQYWSTPWTFGGGTKLEIKGGGGSGGGGSGGGGSQVQLQQSGAELARPGASVKLSCKASGYTFTSYWMQWVKQRPGQGLEWIGAIYPGDGDTRYTQKFKGKATLTADKSSSTAYMQLSSLASEDSAVYYCARGKVYYGSNPFAYWGQGTLVTVSATREQKLISEEDGSGIQNPDPAVYQLRDSKSSDKSVCLFTDFDSQTNVSQSKDSDVYITDKCVLDMRSMDFKSNSAVAWSNKSDFACANAFNNSIIPEDTFFPSSDVPCDVKLVEKSFETDTNLNFQNLSVIGFRILLLKVAGFNLLMTLRLWSSRAKRSGSGVKQTLNFDLLKLAGDVESNPGPSRGHMTEYKPTVRLATRDDVPRAVRTLAAAFADYPATRHTVDPDRHIERVTELQELFLTRVGLDIGKVWVADDGAAVAVWTTPESVEAGAVFAEIGPRMAELSGSRLAAQQQMEGLLAPHRPKEPAWFLATVGVSPDHQGKGLGSAVVLPGVEAAERAGVPAFLETSAPRNLPFYERLGFTVTADVEVPEGPRTWCMTRKPGA
Question: B5 was tested. Which “NFAT-GFP ASSAY Positive Cell lines” value (coculture with L363 cells) did it give?
Answer: +/−

Question: And the “NFAT-GFP ASSAY Positive Cell lines” value (coculture with U266 cells)?
Answer: +

B6: 012517-P12 (protein)
chain: MALPVTALLLPLALLLHAARPLEGKPIPNPLLGLDSTGSGEDLKNVFPPEVAVFEPSKAEIAHTQKATLVCLATGFYPDHVELSWWVNGKEVHSGVCTDPQPLKEQPALNDSRYCLSSRLRVSATFWQNPRNHFRCQVQFYGLSENDEWTQDRAKPVTQIVSAEAWGRADCGITSASYHQGVLSATILYEILLGKATLYAVLVSALVLMAMVKRKDSRGRAKRSGSGATNFSLLKQAGDVEENPGPTSMALPVTALLLPLALLLHAARPDIVMTQSHKFMSTSVGDRVSITCKASQDVSTAVAWYQQKPGQSPKLLIYSASYRYTGVPDRFTGSGSGTDFTFTISSVQAEDLAVYYCQQHYSTPPYTFGGGTKLEIKGGGGSGGGGSGGGGSQVQLQQSGPELVKPGASVKISCKASGYAFSSSWMNWVKQRPGQGLEWIGRIYPGDGDTKYNGKFKGKATLTADKSSSTAYMQLSSLTSVDSAVYFCARSTMIATGAMDYWGQGTSVTVSSTREQKLISEEDGSGIQNPDPAVYQLRDSKSSDKSVCLFTDFDSQTNVSQSKDSDVYITDKCVLDMRSMDFKSNSAVAWSNKSDFACANAFNNSIIPEDTFFPSSDVPCDVKLVEKSFETDTNLNFQNLSVIGFRILLLKVAGFNLLMTLRLWSSRAKRSGSGVKQTLNFDLLKLAGDVESNPGPSRGHMTEYKPTVRLATRDDVPRAVRTLAAAFADYPATRHTVDPDRHIERVTELQELFLTRVGLDIGKVWVADDGAAVAVWTTPESVEAGAVFAEIGPRMAELSGSRLAAQQQMEGLLAPHRPKEPAWFLATVGVSPDHQGKGLGSAVVLPGVEAAERAGVPAFLETSAPRNLPFYERLGFTVTADVEVPEGPRTWCMTRKPGA
Question: What does the source list for B6?
Answer: NFAT-GFP ASSAY Positive Cell lines (coculture with L363 cells): (+/−); NFAT-GFP ASSAY Positive Cell lines (coculture with U266 cells): U266 (+/−), L363
